Experimental data: patent US20220340905, “NUCLEIC ACID APTAMER SPECIFICALLY RECOGNIZING B-LACTOGLOBULIN AND USE THEREOF” (JIANGNAN UNIVERSITY, published 2022)

T1: beta-lactoglobulin (UniProt P02754 P02754:17-178)
T1 sequence: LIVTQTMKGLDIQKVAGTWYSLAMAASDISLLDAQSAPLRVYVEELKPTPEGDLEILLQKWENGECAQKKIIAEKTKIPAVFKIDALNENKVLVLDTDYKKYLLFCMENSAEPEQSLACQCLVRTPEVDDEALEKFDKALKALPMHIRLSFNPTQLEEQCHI

T2: alpha-lactalbumin (UniProt P00711 P00711:20-142)
T2 sequence: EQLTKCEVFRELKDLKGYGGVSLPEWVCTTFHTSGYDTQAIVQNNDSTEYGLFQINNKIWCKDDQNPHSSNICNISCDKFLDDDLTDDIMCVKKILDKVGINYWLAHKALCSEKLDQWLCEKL

B1: Lg-9 (ssDNA)
DNA: AGCAGCACAGAGGTCAGATGGTTTTGTTGGGTCTGCTACGGACTTTGTTGACCTTTGCTCCCTATGCGTGCTACCGTGAA
B2: Lg-18 (ssDNA)
DNA: AGCAGCACAGAGGTCAGATGTTCGGCCTTTGCGTTAACGAACTTCTAGCTATGCGGCGTACCTATGCGTGCTACCGTGAA
B3: Lg-16 (ssDNA)
DNA: AGCAGCACAGAGGTCAGATGTCGTTTGTGGCTGTCAATTGGTGTGTTTACCTGTTTTGGCCTATGCGTGCTACCGTGAA

Assays:
beta-lactoglobulin [1] = target: T1, beta-lactoglobulin; test: magnetic bead strand-displacement fluorescence assay, 37 C; conditions: label: 5'-FAM (fluorescence assay)
Description: (§1) Various concentrations (10 nM, 25 nM, 50 nM, 75 nM, 100 nM, 150 nM, 200 nM, and 300 nM) of the aptamer were respectively mixed with the biotinylated complementary short chain at a molar ratio of 1:1.5, denatured at 95° C. for 10 min, and slowly cooled to 37° C. for 3 h until the two were fully hybridized. The mixture was reacted with a certain amount of streptavidin-coupled magnetic beads (where the weight ratio of the aptamer to the magnetic beads was 1:400) at 37° C. and 200 rpm for 2 h to immobilize the aptamer on the magnetic beads by the strong binding between the biotin and streptavidin. The immobilized magnetic beads were incubated with 50 μg/mL β-lactoglobulin in a 300 μL system at 37° C. and 200 rpm. After magnetic separation, the supernatant was subjected to fluorescence measurement at an excitation wavelength of 485 nm and an emission wavelength of 522 nm. The relative fluorescence intensity at various aptamer concentrations was nonlinearly fitted by GraphPad prism 5.0 software, and the dissociation constant Kd of the aptamer was calculated (see Table 1). […] The homologous sequences (Lg-9 and Lg-16) of the aptamer Lg-18 also have good ability of binding to β-lactoglobulin.

[2] = target: BSA (bovine serum albumin) (Bos taurus, UniProt P02769 P02769:25-607); test: specificity control, 50 ug/mL protein, 200 nM aptamer on magnetic beads; text states good specificity, values only in figure; conditions: label: 5'-FAM (fluorescence assay); stem-loop (Mfold predicted)
Chain of BSA (bovine serum albumin) (P02769 25-607, one chain of several): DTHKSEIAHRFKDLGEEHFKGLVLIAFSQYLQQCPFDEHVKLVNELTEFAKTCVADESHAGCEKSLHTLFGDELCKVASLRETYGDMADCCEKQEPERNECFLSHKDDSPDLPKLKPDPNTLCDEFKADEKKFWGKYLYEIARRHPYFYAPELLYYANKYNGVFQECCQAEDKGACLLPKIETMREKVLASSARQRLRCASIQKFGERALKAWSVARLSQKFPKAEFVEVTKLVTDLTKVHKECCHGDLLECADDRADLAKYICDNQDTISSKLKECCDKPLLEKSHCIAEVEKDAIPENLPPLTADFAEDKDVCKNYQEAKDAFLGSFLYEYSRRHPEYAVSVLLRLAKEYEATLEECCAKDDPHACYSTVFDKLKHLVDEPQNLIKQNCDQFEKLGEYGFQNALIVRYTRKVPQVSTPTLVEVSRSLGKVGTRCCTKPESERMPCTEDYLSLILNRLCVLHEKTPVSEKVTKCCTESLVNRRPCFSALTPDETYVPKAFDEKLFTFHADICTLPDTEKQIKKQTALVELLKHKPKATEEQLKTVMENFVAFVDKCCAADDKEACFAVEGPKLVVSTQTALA
Description: (§2) Various concentrations (10 nM, 25 nM, 50 nM, 75 nM, 100 nM, 150 nM, 200 nM, and 300 nM) of the aptamer were respectively mixed with the biotinylated complementary short chain at a molar ratio of 1:1.5, denatured at 95° C. for 10 min, and slowly cooled to 37° C. for 3 h until the two were fully hybridized. The mixture was reacted with a certain amount of streptavidin-coupled magnetic beads (where the weight ratio of the aptamer to the magnetic beads was 1:400) at 37° C. and 200 rpm for 2 h to immobilize the aptamer on the magnetic beads by the strong binding between the biotin and streptavidin. The immobilized magnetic beads were incubated with 50 μg/mL β-lactoglobulin in a 300 μL system at 37° C. and 200 rpm. After magnetic separation, the supernatant was subjected to fluorescence measurement at an excitation wavelength of 485 nm and an emission wavelength of 522 nm. The relative fluorescence intensity at various aptamer concentrations was nonlinearly fitted by GraphPad prism 5.0 software, and the dissociation constant Kd of the aptamer was calculated (see Table 1). […]
(§3) The specificity of the aptamer (Lg-18) was evaluated by the same method. […] After magnetic separation, the fluorescence intensity of the supernatant was measured respectively, and then the specificity of the aptamer was evaluated.

alpha-lactalbumin = target: T2, alpha-lactalbumin; test: as above; conditions: label: 5'-FAM (fluorescence assay); stem-loop (Mfold predicted)
Description: as §2, §3

beta-lactoglobulin [3] = target: T1, beta-lactoglobulin; test: magnetic bead strand-displacement fluorescence assay, 37 C; aptamer hybridised to biotinylated short chain, released by 50 ug/mL protein; ITC in 10 mM Tris-HCl; conditions: label: 5'-FAM (fluorescence assay); stem-loop (Mfold predicted)
Description: as §1

Binder | Kd (beta-lactoglobulin [1]) [nM] | binding result [2] | binding result (alpha-lactalbumin) | Kd (beta-lactoglobulin [3]) [nM]
B1 | 71.8 |  |  | 
B2 |  | no binding | no binding | 65
B3 | 65.8 |  |  | 
